Data reported in US20240398942A1, “USE OF ANTI-CD40 ANTIBODY” (CHIA TAI TIANQING PHARMACEUTICAL GROUP CO., LTD., priority 2021, published 2024).
“And” between values parts separate entries of the source, which are not always exact repeats. Identical values can stand only once. Marks after values point to notes of the source that are not given here.

Assays:
[1] = tested on: human B-cell lymphoma Ramos cells; test: In vivo anti-tumor efficacy, human B-cell lymphoma Ramos xenograft model; conditions: for Tumor volume on day 0: baseline at grouping; for Tumor volume on day 0 / Tumor volume on day 14: mean ± standard error; for TGI: day 14; for T/C: day 14 vs isotype control
Experimental: The in vivo anti-tumor activity of antibody huC1H1-V2 was measured in NOD-SCID mice. Briefly, 3×10^7 human B-cell lymphoma Ramos cells (Chinese Academy of Sciences) were injected subcutaneously in the right axilla of NOD-SCID mice. The tumor volume was measured using an electronic vernier caliper and calculated according to the formula (length×width^2)/2. When the mean tumor volume reached about 100-150 mm^3, 40 tumor-bearing mice were selected and randomly divided into 4 groups (10 mice per group), with the date of grouping designated as day 0. According to the administration regimen shown in Table 6, the mice were intravenously administered with the isotype control antibody (anti-HEL-Human IgG2 Isotype-control, also referred to as IgG2, Biointron Inc.) or antibody huC1H1-V2 via tail veins since day 0.

[2] = tested on: mouse colon carcinoma MC38 cells; test: In vivo anti-tumor efficacy, colon carcinoma MC38 xenograft model; conditions: for Tumor volume on day 0: baseline at grouping; for Tumor volume on day 0 / Tumor volume on day 14: mean ± standard error; for T/C: TRTV/CRTV, day 14 vs solvent; for TGI: day 14
Experimental: The in vivo anti-tumor activity of antibody huC1H1-V2 was further determined in humanized CD40 transgenic mice (also referred to as hCD40 mice). Briefly, 1×10^6 mouse colon carcinoma MC38 cells (Shanghai Lanli Biotech, LTD., CO.) were injected subcutaneously on the right back of hCD40 mice. The tumor volume was measured using an electronic vernier caliper and calculated according to the formula (length×width^2)/2. When the mean tumor volume reached about 100 mm^3, 18 tumor-bearing mice were selected and randomly divided into 3 groups (6 mice per group), with the date of grouping designated as day 0. According to the administration regimen shown in Table 8, the mice were intravenously administered with the solvent (phosphate buffered saline, or PBS) or antibody huC1H1-V2 via tail veins since day 1.

[3] = Protein thermal shift assay (GloMelt); format: physicochemical; conditions: 25-99 °C melt curve
Experimental: A thermal stability assay was also conducted on humanized antibody huC1H1-V2. Tm (melting temperature) was determined by protein thermal shift assay using the GloMelt™ thermal shift protein stability kit (Biotium, Cat. No. 33022-T). Briefly, the GloMelt™ dye was thawed to room temperature. The vial containing the dye was vortexed and centrifuged. Then, 5 μL of the 200× dye solution was added to 95 μL of PBS to prepare a 10× dye solution. 2 μL of the 10× dye solution and 10 μg of the humanized antibody were added to the reaction system, and PBS was added to bring the total reaction volume to 20 μL. The centrifuge tubes containing the dye and the antibodies were centrifuged briefly and placed in a real-time PCR thermal cycler (Roche, LightCycler 480 II) in which the parameters of the Melt Curve program are shown in Table 4.

B1: huC1H1-V2: humanized C1H1 anti-CD40 antibody, VH SEQ ID NO: 20 X1=S, VL SEQ ID NO: 24 X1=K X2=F, human IgG2/κ (antibody, V domains shown)
VH: EVQLVESGGGLVKPGGSLRLSCAASGFTFSNYGISWVRQAPGKGLEWVXSISSGGDNTYYPDNVKGRFTISRDNAKNSLYLQMNSLRAEDTAVYYCARAGEKAMDYWGQGTLVTVSS
VL: EIVLTQSPATLSLSPGERATLSCRASQTINNNLHWYQQKPGQAPRLLIXYASQSISGIPARFSGSGSGTDFTLTISSLEPEDFAVYXCQQFSSWPLTFGGGTKVEIK
modifications: not fully specified; variable positions X1=S; VL X1=K X2=F; IgG2/kappa constant; VH of huC1H1-V1 to huC1H1-V4; VARIANT 49 X can be A or S; VL of huC1H1-V1 to huC1H1-V4; VARIANT 49 X can be K or Y; VARIANT 87 X can be F or Y
For B1, the “Tumor volume on day 0” value ([1]; 1.5 mg/kg i.v. Q2D × 8 doses) was 111.1 ± 2.0 mm^3, the “Tumor volume on day 14” value ([1]; 1.5 mg/kg i.v. Q2D × 8 doses) was 431.9 ± 58.0*** mm^3 and the TGI ([1]; 1.5 mg/kg i.v. Q2D) was 88%. The T/C ([1]; 1.5 mg/kg i.v. Q2D) was 12%, the “Tumor volume on day 0” value ([1]; 5 mg/kg i.v. Q2D × 8 doses) was 114.5 ± 1.5 mm^3 and the “Tumor volume on day 14” value ([1]; 5 mg/kg i.v. Q2D × 8 doses) was 230.2 mm^3 and 230.2 ± 36.3*** mm^3. The TGI ([1]; 5 mg/kg i.v. Q2D) was 96%, the T/C ([1]; 5 mg/kg i.v. Q2D) was 4% and the “Tumor volume on day 0” value ([1]; 15 mg/kg i.v. Q2D × 8 doses) was 114.3 ± 1.3 mm^3. The “Tumor volume on day 14” value ([1]; 15 mg/kg i.v. Q2D × 8 doses) was 242.5 ± 22.1*** mm^3, the TGI ([1]; 15 mg/kg i.v. Q2D) was 95% and the T/C ([1]; 15 mg/kg i.v. Q2D) was 5%. For the same molecule, the “Tolerability (weight loss or other symptoms)” value ([1]; 1.5, 5, 15 mg/kg i.v. Q2D × 8 doses, tumor-bearing mice) was “well tolerated”, the “Tumor volume on day 0” value ([2]; 3 mg/kg i.v. Q2D × 7 doses) was 111 ± 5 mm^3 and the “Tumor volume on day 14” value ([2]; 3 mg/kg i.v. Q2D × 7 doses) was 1169 mm^3 and 1169 ± 217** mm^3. The T/C ([2]; 3 mg/kg i.v. Q2D) was 36%, the TGI ([2]; 3 mg/kg i.v. Q2D) was 64% and the “Tumor volume on day 0” value ([2]; 10 mg/kg i.v. Q2D × 7 doses) was 113 ± 8 mm^3. The “Tumor volume on day 14” value ([2]; 10 mg/kg i.v. Q2D × 7 doses) was 1446 mm^3 and 1446 ± 467* mm^3, the T/C ([2]; 10 mg/kg i.v. Q2D) was 44% and the TGI ([2]; 10 mg/kg i.v. Q2D) was 56%. For the same molecule, the “Tolerability (weight loss or any symptoms)” value ([2]; 3 and 10 mg/kg i.v. Q2D × 7 doses, tumor-bearing mice) was “well tolerated” and the “Tm (melting temperature)” value [3] was 70 °C.
